The source of these data is patent publication US20240392003A1 (NUMAB THERAPEUTICS, published 2024).

Like-named read-outs stand apart in the source and are kept apart here.

Assay [1] deals with T1, human serum albumin (Sigma-Aldrich A3782) (human, UniProt P02768 25-609).
T1 construct: also called hSA; HSA
The assay can be described thus: SPR; hSA immobilized, pH 5.5.

For assay [2], the target named is T2, recombinant human ROR1 protein (Fc-Tag, Acro Biosystems RO1-H5250) (human, UniProt Q01973 30-406).
T2 construct: Bought; also called hROR1; recombinant human ROR1 ECD; not shown: Fc tag
As to the kind of experiment: SPR; hROR1-Fc immobilized (Avidity).

In assay [3] the target is T3, recombinant human CD3 epsilon extra-cellular domain protein (His-Tag, SinoBiological) (human, UniProt P07766 23-126).
T3 construct: extracellular domain; Bought; also called hCD3ε; human CD3ε; not shown: His tag
As to the kind of experiment: SPR; hCD3ε immobilized, two-state fit.

Assay [4] deals with T3, recombinant human CD3 epsilon …. The assay can be described thus: SPR; hCD3ε immobilized, two-state fit (Ka1).
Assay [5] has the same target. The assay can be described thus: SPR; hCD3ε immobilized, two-state fit (kd1).
The target in assay [6] is T4, human ROR1 (Peprotech 160-054) (human, UniProt Q01973 30-406).
T4 construct: Bought, used as analyte; also called hROR1; recombinant human ROR1 protein
As to the kind of experiment: SPR; MATCH4 captured, hROR1 analyte (Affinity).

Assay [7] has as its target T2, recombinant human ROR1 protein (Fc-Tag, …). As to the kind of experiment: SPR; hROR1-Fc immobilized.
Assay [8] has as its target T5, human ROR1 expressed on cells (human, UniProt Q01973 30-937).
T5 construct: whole, on cells; One molecule for cell-surface ROR1 on all cell lines; the cell line is named under assay; also called hROR1; plasma membrane human ROR1
As to the kind of experiment: flow cytometry, MDA-MB-231 cells.

Assay [9] deals with T5, human ROR1 expressed on cells. The assay can be described thus: cell-based or functional assay.
Assay [10] addresses T2, recombinant human ROR1 protein (Fc-Tag, …). The assay can be described thus: SPR; hROR1-Fc immobilized. This is another data set of the same source.
In assay [11] the target is T3, recombinant human CD3 epsilon …. As to the kind of experiment: SPR; hCD3ε immobilized, two-state fit. The source holds these as a separate data set.
Assay [12] shares this target. The assay can be described thus: SPR; hCD3ε immobilized, two-state fit (ka1).
Assay [13] shares this target. The assay can be described thus: SPR; hCD3ε immobilized, two-state fit (kd1). The source holds these as a separate data set.
Assay [14] has as its target T5, human ROR1 expressed on cells. As to the kind of experiment: flow cytometry, MDA-MB-231 cells, 1 mg/ml hSA.

B1: PRO2558 (bispecific antibody)
chain: AFELTQSPSSLSASVGDRVTITCQASESINSRLAWYQQKPGQPPKLLIYDASDLTSGVPSRFSGSGSGTDFTLTISSLQPEDFATYYCQGYGGSSTTTFGCGTKLTVLGGGGGSEVQLVESGGGLVQPGGSLRLSCAASGFSLSSYDMSWVRQAPGKGLAWIGASYASGPTYYASWAKGRFTISRDNSKNTVYLQMNSLRAEDTATYFCARGGWTGTSHSNIWGQGTLVTVSSGGGGSGGGGSGGGGSGGGGSDIQMTQSPSSLSASVGDRVTITCQSSQSVFSNNYLAWFQQKPGQSPKRLIYSASTLASGVPSRFSGSGSGTDFTLTISSLQPEDFATYYCLGSYACSSADCYVFGTGTKVTVLGGGGGSEVQLVESGGGLVQPGGSLRLSCAASGFSLSSYAMNWVRQAPGKCLEWIGHINAGDIAYYATWAKGRFTISRDNSKNTVYLQMNSLRAEDTAVYFCARGAGGFSTGPFKLWGQGTLVTVSS
modifications: Interdomain disulfide in the hSA domain (VH G51C / VL G141C, AHo numbering).
notes: also called 19-04-A10-sc06 scDb-o/28-21-D09-sc04 scDb-i/56-22-A05-sc02 scFv; not shown: C-terminal 56-22-A05-sc02 scFv and the linker leading to it
Turning to B1, in assay [1], the Kd is 4.4 nM, the off-rate constant (koff) was 0.002 s⁻¹ and the kon is 460000 M⁻¹ s⁻¹.

B2: PRO2669 (bispecific antibody)
chain 1: DVQMTQSPSSLSASVGDRVTITCRASENIYSGLAWYQQKPGKPPKLLIYRASTLASGVSSRFSGSGSGTDFTLTISSLQPEDFATYYCQGGYYSSSSTYIAFGTGTKVTVLGGGGGSGGGGSGGGGSGGGGSQSQVVESGGGRVQPGGSLRLSCAVSGFDLSSYAVSWVRQAPGKGLEWIGIIYPRANTYYASWAKGRFTISKDNSKNTVYLQMNSLRAEDTATYFCARDRYDSGAYLYTTYFNLWGQGTQVTVSSGGGGSGGGGSAFELTQSPSSLSASVGDRVTITCQASESINSRLAWYQQKPGQPPKLLIYDASDLTSGVPSRFSGSGSGTDFTLTISSLQPEDFATYYCQGYGGSSTTTFGCGTKLTVLGGGSGGSDIQMTQSPSSLSASVGDRVTITCQSSQSVFSNNYLAWFQQKPGQSPKRLIYSASTLASGVPSRFSGSGSGTDFTLTISSLQPEDFATYYCLGSYACSSADCYVFGTGTKVTVLG
chain 2: DVQMTQSPSSLSASVGDRVTITCRASENIYSGLAWYQQKPGKPPKLLIYRASTLASGVSSRFSGSGSGTDFTLTISSLQPEDFATYYCQGGYYSSSSTYIAFGTGTKVTVLGGGGGSGGGGSGGGGSGGGGSQSQVVESGGGRVQPGGSLRLSCAVSGFDLSSYAVSWVRQAPGKGLEWIGIIYPRANTYYASWAKGRFTISKDNSKNTVYLQMNSLRAEDTATYFCARDRYDSGAYLYTTYFNLWGQGTQVTVSSGGGGSGGGGSEVQLVESGGGRVQPGGSLRLSCAASGFSLSSYDMSWVRQAPGKGLAWIGASYASGPTYYASWAKGRFTISRDNSKNTVYLQMNSLRAEDTATYFCARGGWTGTSHSNIWGQGTQVTVSSGGGSGGGSGGGSGEVQLVESGGGRVQPGGSLRLSCAASGFSLSSYAMNWVRQAPGKCLEWIGHINAGDIAYYATWAKGRFTISRDNSKNTVYLQMNSLRAEDTATYFCARGAGGFSTGPFKLWGQGTQVTVSS
notes: heterodimeric MATCH4, modified VH domains, variant of PRO2589; also called MATCH4 with 55-38-D07-sc02(RTQ) / 19-04-A10-sc02(RTQ) diS / 28-21-D09-sc04(RTQ) / 55-38-D07-sc02(RTQ)
Take B2: in [2], the Kd turned out to be 0.026 nM, the koff came to 2.6e-05 s⁻¹ and the on-rate (kon) is 1e+06 M⁻¹ s⁻¹. For the same molecule, in assay [3], the Ka2 was found to be 0.0056 s⁻¹, the Kd is 2.7 nM and the Kd2 was 0.0047 s⁻¹. The kon in assay [4] stood at 810000 M⁻¹ s⁻¹. Besides, the koff in assay [5] is 0.0047 s⁻¹. In assay [6], the Kd was not above 0.177 nM, the koff was less than 1e-05 s⁻¹ and the kon was 56600 M⁻¹ s⁻¹.

B3: PRO2292 (scFv, V domains shown)
VH: QSQLVESGGGLVQPGGSLRLSCAVSGLSLSRNAMSWVRQAPGKCLEWIGIILTSGSTYYASWAKGRFTISKDNSKNTVYLQMNSLRAEDTAVYFCVRGIASSSLKSFWGQGTLVTVSS
VL: AQQLTQSPSSLSASVGDRVTITCQASQNVWNNNYLSWFQQKPGKPPKLLIVTASTLASGVSSRFSGSGSGTDFTLTISSLQPEDFATYYCAGGFSGEIRAFGCGTKVTVLG
notes: scFv, PRO2062 with VL-VH interdomain disulfide (AHo 141VL-51VH); also called 55-39-G02-sc05
Consider B3, for which, in assay [7], the Kd was 0.0906 nM, the off-rate (koff) stood at 0.000616 s⁻¹ and the kon is 6.8e+06 M⁻¹ s⁻¹. In addition, in assay [8], the response was half-maximal at 0.27 nM (EC50) and the “Rel. maximum binding (MFIscFv/MFIPRO2213)” value is 1.18.

B4: PRO2291 (scFv, V domains shown)
VH: QSQVVESGGGLVQPGGSLRLSCAVSGFDLSSYAVSWVRQAPGKCLEWIGIIYPRANTYYASWAKGRFTISKDNSKNTVYLQMNSLRAEDTAVYFCARDRYDSGAYLYTTYFNLWGQGTLVTVSS
VL: DVQMTQSPSSLSASVGDRVTITCRASENIYSGLAWYQQKPGKPPKLLIYRASTLASGVSSRFSGSGSGTDFTLTISSLQPEDFATYYCQGGYYSSSSTYIAFGCGTKVTVLG
notes: scFv, PRO2060 with VL-VH interdomain disulfide (AHo 141VL-51VH); also called 55-38-D07-sc06
For the molecule B4, in assay [7], the Kd was 1.12 nM, the koff turned out to be 0.000302 s⁻¹ and the association rate constant (kon) was found to be 269000 M⁻¹ s⁻¹. Further, in assay [8], the concentration giving a half-maximal response (EC50) turned out to be 2.74 nM and the “Rel. maximum binding (MFIscFv/MFIPRO2213)” value stood at 1.18.

B5: PRO2508 (bispecific antibody)
chain: AFELTQSPSSLSASVGDRVTITCQASESINSRLAWYQQKPGQPPKLLIYDASDLTSGVPSRFSGSGSGTDFTLTISSLQPEDFATYYCQGYGGSSTTTFGCGTKLTVLGGGGGSEVQLVESGGGLVQPGGSLRLSCAASGFSLSSYDMSWVRQAPGKGLAWIGASYASGPTYYASWAKGRFTISRDNSKNTVYLQMNSLRAEDTATYFCARGGWTGTSHSNIWGQGTLVTVSSGGGGSGGGGSGGGGSGGGGSDIQMTQSPSSLSASVGDRVTITCQSSQSVFSNNYLAWFQQKPGQSPKRLIYSASTLASGVPSRFSGSGSGTDFTLTISSLQPEDFATYYCLGSYACSSADCYVFGTGTKVTVLGGGGGSEVQLVESGGGLVQPGGSLRLSCAASGFSLSSYAMNWVRQAPGKCLEWIGHINAGDIAYYATWAKGRFTISRDNSKNTVYLQMNSLRAEDTAVYFCARGAGGFSTGPFKLWGQGTLVTVSSGGGGSGGGGSDVQMTQSPSSLSASVGDRVTITCRASENIYSGLAWYQQKPGKPPKLLIYRASTLASGVSSRFSGSGSGTDFTLTISSLQPEDFATYYCQGGYYSSSSTYIAFGCGTKVTVLGGGGGSGGGGSGGGGSGGGGSQSQVVESGGGLVQPGGSLRLSCAVSGFDLSSYAVSWVRQAPGKCLEWIGIIYPRANTYYASWAKGRFTISKDNSKNTVYLQMNSLRAEDTAVYFCARDRYDSGAYLYTTYFNLWGQGTLVTVSS
notes: trispecific anti-ROR1 x hSA x CD3 scMATCH3, single chain; also called 19-04-A10-sc06 scDb-o/28-21-D09-sc04 scDb-i/55-38-D07-sc06-scFv
In the case of B5, in assay [9], the “EC50 (nM) Cytotoxicity (MDA-MB-231)” value stood at 1.7 nM. Moreover, in assay [10], the Kd is not above 0.13 nM, the dissociation rate constant (koff) was less than 1e-05 s⁻¹ and the kon is 76000 M⁻¹ s⁻¹. In addition, in [11], the Kd was 8.5 nM, the ka2 came out at 0.0068 s⁻¹ and the kd2 turned out to be 0.0074 s⁻¹. The association rate constant (kon) in [12] was found to be 380000 M⁻¹ s⁻¹. The koff in [13] is 0.0062 s⁻¹. In [14], the midpoint of the response, the EC50, lay at 18.7 nM and the “Rel. maximum binding (MFIscMATCH3/MFIPRO2213)” value is 3.

B6: PRO2667 (bispecific antibody)
chain: AFELTQSPSSLSASVGDRVTITCQASESINSRLAWYQQKPGQPPKLLIYDASDLTSGVPSRFSGSGSGTDFTLTISSLQPEDFATYYCQGYGGSSTTTFGCGTKLTVLGGGGGSEVQLVESGGGRVQPGGSLRLSCAASGFSLSSYDMSWVRQAPGKGLAWIGASYASGPTYYASWAKGRFTISRDNSKNTVYLQMNSLRAEDTATYFCARGGWTGTSHSNIWGQGTQVTVSSGGGGSGGGGSGGGGSGGGGSDIQMTQSPSSLSASVGDRVTITCQSSQSVFSNNYLAWFQQKPGQSPKRLIYSASTLASGVPSRFSGSGSGTDFTLTISSLQPEDFATYYCLGSYACSSADCYVFGTGTKVTVLGGGGGSEVQLVESGGGRVQPGGSLRLSCAASGFSLSSYAMNWVRQAPGKCLEWIGHINAGDIAYYATWAKGRFTISRDNSKNTVYLQMNSLRAEDTATYFCARGAGGFSTGPFKLWGQGTQVTVSSGGGGSGGGGSDVQMTQSPSSLSASVGDRVTITCRASENIYSGLAWYQQKPGKPPKLLIYRASTLASGVSSRFSGSGSGTDFTLTISSLQPEDFATYYCQGGYYSSSSTYIAFGTGTKVTVLGGGGGSGGGGSGGGGSGGGGSQSQVVESGGGRVQPGGSLRLSCAVSGFDLSSYAVSWVRQAPGKGLEWIGIIYPRANTYYASWAKGRFTISKDNSKNTVYLQMNSLRAEDTATYFCARDRYDSGAYLYTTYFNLWGQGTQVTVSS
notes: trispecific anti-ROR1 x hSA x CD3 scMATCH3, single chain, modified VH domains; also called 19-04-A10-sc06(RTQ) scDb-o/28-21-D09-sc04 (RTQ) scDb-i/55-38-D07-sc02(RTQ)-scFv
Consider B6, for which, in assay [10], the Kd amounted to 0.97 nM, the koff worked out at 9.2e-05 s⁻¹ and the kon came to 95000 M⁻¹ s⁻¹. Besides, in [11], the Kd was 4.4 nM, the ka2 was found to be 0.0045 s⁻¹ and the kd2 was 0.0061 s⁻¹. For the same molecule, the kon in assay [12] came out at 540000 M⁻¹ s⁻¹. The off-rate (koff) in assay [13] was found to be 0.0041 s⁻¹.
